Data set [1] deals with the molecule itself. The data set can be described thus: crystal structure; NONO aa53–312 homodimer; six dimers (12 monomers) in the asymmetric unit; 2.60 Å; crystallization and phasing described in ref. 38.
Data set [2] deals with the molecule itself. The data set can be described thus: crystal structure; PSPC1 aa61–320 homodimer; one dimer in the asymmetric unit; 3.17 Å; hanging drop, 100 mM malic acid pH 7.0, 28% PEG 3350, 100 mM Tris pH 7.0.

B1: NONO-DBHS (non-POU domain-containing octamer-binding protein, aa53–312) (domain or fragment, human, UniProt Q15233 53-312, looked up)
chain: EGLTIDLKNFRKPGEKTFTQRSRLFVGNLPPDITEEEMRKLFEKYGKAGEVFIHKDKGFGFIRLETRTLAEIAKVELDNMPLRGKQLRVRFACHSASLTVRNLPQYVSNELLEEAFSVFGQVERAVVIVDDRGRPSGKGIVEFSGKPAARKALDRCSEGSFLLTTFPRPVTVEPMDQLDDEEGLPEKLVIKNQQFHKEREQPPRFAQPGSFEYEYAMRWKALIEMEKQQQDQVDRNIKEAREKLEMEMEAARHEHQVMLM
notes: Cloned into the first expression cassette of pET-Duet1; also called NONO homodimer; P54nrb; not shown: His6, N-terminal, cleaved
With B1, in data set [1], the binding result is recorded as “binds”.

B2: PSPC1-DBHS (paraspeckle protein component 1, aa61–320) (domain or fragment, human, UniProt Q8WXF1 61-320, looked up)
chain: MGFTIDIKSFLKPGEKTYTQRCRLFVGNLPTDITEEDFKRLFERYGEPSEVFINRDRGFGFIRLESRTLAEIAKAELDGTILKSRPLRIRFATHGAALTVKNLSPVVSNELLEQAFSQFGPVEKAVVVVDDRGRATGKGFVEFAAKPPARKALERCGDGAFLLTTTPRPVIVEPMEQFDDEDGLPEKLMQKTQQYHKEREQPPRFAQPGTFEFEYASRWKALDEMEKQQREQVDRNIREAKEKLEAEMEAARHEHQLMLM
notes: human PSPC1, conserved DBHS region, aa61–320 relative to UniProt entry PSPC1_HUMAN; also called PSPC1 homodimer; PSPC1 (aa61–320); source: E. coli Rosetta2 (DE3), purified (Ni Hi-Trap, TEV digestion, reverse Hi-Trap, Superdex 200)
Turning to B2, the binding result in data set [2] is reported as “binds”.

The record behind these values is paper PMC8754649, “Structural basis of dimerization and nucleic acid binding of human DBHS proteins NONO and PSPC1” (Nucleic Acids Research, 2021).
